Key:
Assay in all cases: Immunoprecipitation of GFP-HDART with Flag-HDAC in 293 cells
Format in all cases: binding
Settings in all cases: co-transfected 293 cells; anti-FLAG immunoprecipitation
HDAC1 = target: T1, HDAC1 (Homo sapiens, UniProt Q13547)
T1 construct: made in house
Protocol: (§1) Flag-HDACs expression vectors capable of expressing different types of HDAC (1, 3, 4 or 6) and a GFP-HDART expression vector were, respectively, co-transfected with 293 cells in the same manner as in Example 2, and cell extracts were prepared 24 hours after the transfection. The respective cell extracts were incubated with an anti-Flag antibody, followed by immunoprecipitation. The resulting immunoprecipitate was isolated with SDS-PAGE and an isolated pattern was transferred to a membrane, followed by immunoblotting with use of an anti-Flag antibody or […]. For reference, in order to confirm the expression of GFP-HDART protein in the respective cells, individual samples prior to the immunoprecipitation were similarly developed with SDS-PAGE to conduct immunoblotting with use of an anti-GFP antibody. […] The kinds of HDAC's from the left side of the figure are as follows: lane 1, HDAC1; lane 3, HDAC3; lane 4, HDAC4; and lane 5, HDAC6. It will be noted that lane 2 is for the sample in which GFP-HDART alone was expressed.

HDAC4 = target: T2, HDAC4 (Homo sapiens, UniProt P56524)
T2 construct: expressed in transfected cells; host or cells: 293 cells
Protocol: as §1

HDAC6 = target: T3, HDAC6 (Homo sapiens, UniProt Q9UBN7)
T3 construct: expressed in transfected cells; host or cells: 293 cells
T3 sequence (Q9UBN7 1-1215): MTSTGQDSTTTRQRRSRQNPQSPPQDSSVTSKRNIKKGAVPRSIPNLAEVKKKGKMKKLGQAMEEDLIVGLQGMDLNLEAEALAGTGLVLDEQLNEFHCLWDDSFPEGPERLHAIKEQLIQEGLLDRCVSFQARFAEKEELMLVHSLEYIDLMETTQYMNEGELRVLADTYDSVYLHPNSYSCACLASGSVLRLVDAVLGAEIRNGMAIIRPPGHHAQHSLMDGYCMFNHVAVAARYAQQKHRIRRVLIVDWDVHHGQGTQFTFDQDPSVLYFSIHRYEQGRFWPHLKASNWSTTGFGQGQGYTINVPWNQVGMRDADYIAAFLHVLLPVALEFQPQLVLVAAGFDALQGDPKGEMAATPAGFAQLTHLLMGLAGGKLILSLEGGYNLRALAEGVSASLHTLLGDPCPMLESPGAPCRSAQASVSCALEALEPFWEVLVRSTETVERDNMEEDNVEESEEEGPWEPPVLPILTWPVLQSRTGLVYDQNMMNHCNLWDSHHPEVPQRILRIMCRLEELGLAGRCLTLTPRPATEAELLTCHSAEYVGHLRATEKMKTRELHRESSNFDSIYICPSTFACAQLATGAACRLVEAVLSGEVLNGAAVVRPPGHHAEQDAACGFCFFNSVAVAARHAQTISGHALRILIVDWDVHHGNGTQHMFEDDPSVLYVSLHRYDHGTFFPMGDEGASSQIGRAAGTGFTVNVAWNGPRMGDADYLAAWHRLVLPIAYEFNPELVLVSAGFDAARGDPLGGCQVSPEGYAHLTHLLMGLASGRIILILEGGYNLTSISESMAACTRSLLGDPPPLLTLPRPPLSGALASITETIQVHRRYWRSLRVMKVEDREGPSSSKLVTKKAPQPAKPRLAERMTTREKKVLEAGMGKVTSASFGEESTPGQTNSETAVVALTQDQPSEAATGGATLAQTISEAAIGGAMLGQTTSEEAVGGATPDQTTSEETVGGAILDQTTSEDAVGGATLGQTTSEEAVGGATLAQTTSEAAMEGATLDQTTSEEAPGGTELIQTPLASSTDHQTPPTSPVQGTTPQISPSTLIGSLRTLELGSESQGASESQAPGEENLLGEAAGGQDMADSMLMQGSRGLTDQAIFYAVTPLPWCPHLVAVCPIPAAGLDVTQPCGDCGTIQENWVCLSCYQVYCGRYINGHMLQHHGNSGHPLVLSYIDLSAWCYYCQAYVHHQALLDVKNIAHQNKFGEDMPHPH
Protocol: as §1

T2 sequence (P56524 whole entry, species assumed): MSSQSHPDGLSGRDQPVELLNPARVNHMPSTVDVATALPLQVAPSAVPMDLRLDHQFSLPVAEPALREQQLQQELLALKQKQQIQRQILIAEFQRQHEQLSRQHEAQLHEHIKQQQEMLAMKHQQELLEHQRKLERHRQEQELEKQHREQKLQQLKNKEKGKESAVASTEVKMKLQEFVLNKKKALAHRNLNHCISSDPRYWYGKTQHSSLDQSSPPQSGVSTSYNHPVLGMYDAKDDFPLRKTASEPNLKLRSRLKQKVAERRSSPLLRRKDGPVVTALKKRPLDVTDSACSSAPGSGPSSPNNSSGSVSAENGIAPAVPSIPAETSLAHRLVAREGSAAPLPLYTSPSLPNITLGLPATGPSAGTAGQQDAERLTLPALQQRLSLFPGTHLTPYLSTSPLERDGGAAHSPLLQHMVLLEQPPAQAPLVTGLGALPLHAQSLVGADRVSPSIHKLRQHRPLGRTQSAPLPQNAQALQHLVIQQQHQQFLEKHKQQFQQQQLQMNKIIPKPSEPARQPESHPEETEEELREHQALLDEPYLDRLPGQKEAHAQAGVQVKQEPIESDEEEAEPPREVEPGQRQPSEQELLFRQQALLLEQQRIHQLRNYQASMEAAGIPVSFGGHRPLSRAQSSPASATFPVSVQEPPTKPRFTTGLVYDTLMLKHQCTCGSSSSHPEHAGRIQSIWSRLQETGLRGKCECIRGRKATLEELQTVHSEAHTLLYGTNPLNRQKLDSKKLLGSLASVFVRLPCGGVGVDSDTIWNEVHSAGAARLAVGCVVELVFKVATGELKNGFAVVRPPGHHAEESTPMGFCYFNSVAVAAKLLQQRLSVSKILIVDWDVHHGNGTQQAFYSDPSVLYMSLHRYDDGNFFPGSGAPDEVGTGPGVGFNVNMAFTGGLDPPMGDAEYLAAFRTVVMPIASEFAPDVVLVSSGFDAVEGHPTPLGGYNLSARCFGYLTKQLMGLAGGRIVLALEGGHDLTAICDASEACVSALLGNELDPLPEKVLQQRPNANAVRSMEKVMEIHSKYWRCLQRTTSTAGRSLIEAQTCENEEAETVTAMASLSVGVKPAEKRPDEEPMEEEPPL
T1 sequence (Q13547 whole entry, species assumed): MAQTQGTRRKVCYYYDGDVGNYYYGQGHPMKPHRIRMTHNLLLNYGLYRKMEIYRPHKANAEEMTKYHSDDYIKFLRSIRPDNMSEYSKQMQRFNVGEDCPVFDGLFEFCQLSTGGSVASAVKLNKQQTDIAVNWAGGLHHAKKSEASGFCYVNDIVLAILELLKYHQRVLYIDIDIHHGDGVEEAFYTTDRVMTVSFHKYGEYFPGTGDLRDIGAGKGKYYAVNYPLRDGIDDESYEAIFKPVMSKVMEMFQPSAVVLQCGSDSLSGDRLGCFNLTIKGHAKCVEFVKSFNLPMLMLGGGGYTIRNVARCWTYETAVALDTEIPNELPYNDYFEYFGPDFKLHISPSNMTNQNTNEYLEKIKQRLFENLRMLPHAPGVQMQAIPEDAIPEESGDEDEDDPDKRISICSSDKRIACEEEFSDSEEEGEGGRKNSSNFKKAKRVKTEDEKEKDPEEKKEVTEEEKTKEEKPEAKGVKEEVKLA

B1: HDART: HDAC associated repressor TPR protein, 855 amino acids, SEQ ID NO: 2; transcription repressing factor, used as fusions or expressed from vector (protein, listed as Homo sapiens)
chain: MVVMARLSRPERPDLVFEEEDLPYEEEIMRNQFSVKCWLRYIEFKQGAPKPRLNQLYERALKLLPCSYKLWYRYLKARRAQVKHRCVTDPAYEDVNNCHERAFVFMHKMPRLWLDYCQFLMDQGRVTHTRRTFDRALRALPITQHSRIWPLYLRFLRSHPLPETAVRGYRRFLKLSPESAEEYIEYLKSSDRLDEAAQRLATVVNDERFVSKAGKSNYQLWHELCDLISQNPDKVQSLNVDAIIRGGLTRFTDQLGKLWCSLADYYIRSGHFEKARDVYEEAIRTVMTVRDFTQVFDSYAQFEESMIAAKMETASELGREEEDDVDLELRLARFEQLISRRPLLLNSVLLRQNPHHVHEWHKRVALHQGRPREIINTYTEAVQTVDPFKATGKPHTLWVAFAKFYEDNGQLDDARVILEKATKVNFKQVDDLASVWCQCGELELRHENYDEALRLLRKATALPARRAEYFDGSEPVQNRVYKSLKVWSMLADLEESLGTFQSTKAVYDRILDLRIATPQIVINYAMFLEEHKYFEESFKAYERGISLFKWPNVSDIWSTYLTKFIARYGGRKLERARDLFEQALDGCPPKYAKTLYLLYAQLEEEWGLARHAMAVYERATRAVEPAQQYDMFNIYIKRAAEIYGVTHTRGIYQKAIEVLSDEHAREMCLRFADMECKLGEIDRARAIYSFCSQICDPRTTGAFWQTWKDFEVRHGNEDTIKEMLRIRRSVQATYNTQVNFMASQMLKVSGSATGTVSDLAPGQSGMDDMKLLEQRAEQLAAEAERDQPLRAQSKILFVRSDASREELAELAQQVNPEEIQLGEDEDEDEMDLEPNEVRLEQQSVPAAVFGSLKED
exhibits interaction: interaction with HDAC1 (HDAC1) | interaction with HDAC4 (HDAC4) | interaction with HDAC6 (HDAC6)

— US8889408B2, “Factor taking part in transcription control” (Sony Corporation, priority 2002, dated 2014)
